Earlier results as cited in article PMC12152951.

Columns and labels:
[1] = target: TSLPR-IL7Rα fusion protein (Homo sapiens) (UniProt Q9HC73)
[2] = target: TSLPR (Homo sapiens) (UniProt Q9HC73)
[3] = target: IL7Rα (Homo sapiens) (UniProt P16871)
UniProt P16871, sequence (P16871 21-239): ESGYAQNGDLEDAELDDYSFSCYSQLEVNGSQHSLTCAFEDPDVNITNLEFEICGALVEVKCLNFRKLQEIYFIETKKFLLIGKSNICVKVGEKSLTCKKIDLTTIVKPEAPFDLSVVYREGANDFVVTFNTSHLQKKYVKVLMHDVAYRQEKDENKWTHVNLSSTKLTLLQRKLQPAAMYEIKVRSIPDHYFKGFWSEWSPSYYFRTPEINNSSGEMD

Substance	Kd [1] [nM]	Kd [2] [nM]	Kd [3] [nM]
TSLP (from UniProt Q969D9)	0.09	32	
TSLP-TSLPR complex (from UniProt Q969D9)			29
